Measurements as given in US20140223606, “COMPOSITIONS AND METHODS COMPRISING SEQUENCES HAVING MEGANUCLEASE ACTIVITY” (PIONEER HI BRED INTERNATIONAL INC, published 2014).

T1: MHP14(01) (artificial)
T1 chain: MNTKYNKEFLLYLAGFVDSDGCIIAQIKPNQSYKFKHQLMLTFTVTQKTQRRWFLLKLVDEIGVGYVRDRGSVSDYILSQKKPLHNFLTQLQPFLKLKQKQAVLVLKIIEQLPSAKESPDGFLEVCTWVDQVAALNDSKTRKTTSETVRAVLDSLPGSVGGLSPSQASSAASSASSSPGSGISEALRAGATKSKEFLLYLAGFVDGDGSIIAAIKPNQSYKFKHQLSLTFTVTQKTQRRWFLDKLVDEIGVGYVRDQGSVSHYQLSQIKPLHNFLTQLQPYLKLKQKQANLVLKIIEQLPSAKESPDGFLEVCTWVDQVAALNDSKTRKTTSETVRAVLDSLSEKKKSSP

T2: MHP14(L14-03) (artificial)
T2 chain: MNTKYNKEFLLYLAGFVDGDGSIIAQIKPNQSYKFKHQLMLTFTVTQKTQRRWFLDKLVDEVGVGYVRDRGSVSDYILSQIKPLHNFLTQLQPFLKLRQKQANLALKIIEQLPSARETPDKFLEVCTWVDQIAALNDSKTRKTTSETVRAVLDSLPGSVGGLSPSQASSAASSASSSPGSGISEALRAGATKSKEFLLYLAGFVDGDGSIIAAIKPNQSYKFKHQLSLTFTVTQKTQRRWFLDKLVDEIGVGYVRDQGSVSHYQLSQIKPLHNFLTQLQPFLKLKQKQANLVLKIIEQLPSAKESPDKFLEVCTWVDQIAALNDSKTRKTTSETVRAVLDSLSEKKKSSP

T3: ZM6.22v2(I3) (artificial)
T3 chain: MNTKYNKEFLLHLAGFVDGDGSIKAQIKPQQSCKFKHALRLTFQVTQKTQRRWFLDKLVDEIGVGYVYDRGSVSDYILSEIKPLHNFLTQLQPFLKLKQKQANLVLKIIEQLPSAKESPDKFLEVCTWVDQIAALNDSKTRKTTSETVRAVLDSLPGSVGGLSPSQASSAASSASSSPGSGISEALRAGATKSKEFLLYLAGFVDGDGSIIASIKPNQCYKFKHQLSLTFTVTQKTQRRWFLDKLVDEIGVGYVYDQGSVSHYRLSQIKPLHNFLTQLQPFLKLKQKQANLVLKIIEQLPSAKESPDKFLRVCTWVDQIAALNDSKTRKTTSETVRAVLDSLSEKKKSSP

T4: ZM6.22v2(J2) (artificial)
T4 chain: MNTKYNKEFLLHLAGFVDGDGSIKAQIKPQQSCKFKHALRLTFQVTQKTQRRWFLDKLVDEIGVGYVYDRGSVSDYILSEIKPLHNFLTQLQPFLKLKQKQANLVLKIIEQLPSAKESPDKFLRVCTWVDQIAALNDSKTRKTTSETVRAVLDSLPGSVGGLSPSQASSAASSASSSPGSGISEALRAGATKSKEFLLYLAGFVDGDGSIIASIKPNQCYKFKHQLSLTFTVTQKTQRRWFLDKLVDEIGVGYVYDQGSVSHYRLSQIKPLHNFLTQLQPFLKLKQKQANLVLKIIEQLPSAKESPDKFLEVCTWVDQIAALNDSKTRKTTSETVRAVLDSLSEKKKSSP

T5: ZM6.22v2(I7) (artificial)
T5 chain: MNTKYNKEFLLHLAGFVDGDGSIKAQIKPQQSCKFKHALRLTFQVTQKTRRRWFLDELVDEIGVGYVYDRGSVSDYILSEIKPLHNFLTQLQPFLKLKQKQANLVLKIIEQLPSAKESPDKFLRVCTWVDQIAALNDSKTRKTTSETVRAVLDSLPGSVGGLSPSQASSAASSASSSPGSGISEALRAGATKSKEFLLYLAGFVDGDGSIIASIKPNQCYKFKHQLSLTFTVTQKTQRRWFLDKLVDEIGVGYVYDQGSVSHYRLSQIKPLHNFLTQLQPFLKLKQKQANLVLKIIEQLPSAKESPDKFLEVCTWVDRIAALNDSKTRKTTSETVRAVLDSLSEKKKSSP


Columns and labels:
Conditions in all cases: tags: NLS, 6xHis
MHP14(01) = target: T1, MHP14(01); assay: cell_activity; yeast 37 C; 28 C: 0
Description: (§1) A 3 mL culture of selective media (MP Biomedical) was inoculated with a single colony of the yeast screening strain and grown at 30° C. overnight. On the following day, a 50 ml YPD culture (MP Biomedical) was started with 2 ml of the overnight culture and grown at 30° C. overnight. On the following day, the cells were harvested by centrifugation at 4000 rpm. The cells were resuspended in 100 ml ice cold water and centrifuged again. The cells were then washed in 1.2 M sorbitol, followed by treatment with 2 ml of 10 mM Tris pH 8.0, 1 mM EDTA, 100 mM Lithium acetate, 10 mM DTT, 0.6M sorbitol for 30 minutes at 30° C. with shaking. The cells were recovered by centrifugation, washed in 40 ml 1.2M sorbitol and finally resuspended in 250 microliters of 1.2M sorbitol. 50 microliter aliquots were transferred to test tubes on ice. Up to 5 microliters of DNA (100-500 nanograms) were added. The suspension was transferred to a 0.2 cm electroporation cuvette, on ice. Electroporation was performed with a pulse charge at 1.5 kV, 200 ohms, 25 microF (pulse time of 5 milliseconds). 1 mL YPD media (MP Biomedical) was added and the cells were allowed to recover at 30° C. for 1-2 hr. The cells were centrifuged, resuspended in 100 uL 1M sorbitol and plated on selective media lacking leucine and containing 2% galactose. The resulting yeast colonies were incubated at various temperatures ranging from 22 to 37 degrees Celsius for 7-10 days. I-CreI and meganucleases derived from it have maximal activity at or above 37 degrees Celsius. Screening was performed at a range of temperatures from 22 to 37 degrees in order to observe increases in activity at lower temperatures which are relevant to certain biological systems (eg. plant cells, plant cell cultures, etc). At that time the red/white sectoring phenotype, indicative of meganuclease activity was observed. Colonies with increased white sectoring over the parental meganuclease (indicating colonies expressing a meganuclease with increased meganuclease activity), also referred to as “hits” and sometimes completely white, were isolated for further analysis.
(§2) A total of 15 MHP14 variants with increased activity were confirmed in the yeast system (as described in Example 6). Increased activity was observed across a range of temperatures: 28 degrees Celsius, 34 degrees Celsius and 37 degrees Celsius, as shown in Table 11.

MHP14(L14-03) = target: T2, MHP14(L14-03); assay: cell_activity; yeast 37 C; 28 C: 0
Description: as §1, §2

ZM6.22v2(I3) = target: T3, ZM6.22v2(I3); assay: cell_activity; yeast 37 C; 30 C: 0
Description: as §1
(§3) A total of 13 ZM6.22v2 variants with increased activity were confirmed in the yeast system (as described in Example 6). Increased activity was observed across a range of temperatures: 28 degrees Celsius, 30 degrees Celsius and 37 degrees Celsius, as shown in Table 16.

ZM6.22v2(J2) = target: T4, ZM6.22v2(J2); assay: cell_activity; yeast 37 C; 30 C: 0
Description: as §1, §3

ZM6.22v2(I7) = target: T5, ZM6.22v2(I7); assay: cell_activity; yeast 37 C; 30 C: 0
Description: as §1, §3

Binder	activity (MHP14(01)) [score 0-4]	activity (MHP14(L14-03)) [score 0-4]	activity (ZM6.22v2(I3)) [score 0-4]	activity (ZM6.22v2(J2)) [score 0-4]	activity (ZM6.22v2(I7)) [score 0-4]
MHP14 recognition site (dsDNA) DNA 1: CAAACAGATTCACGTCAGATTT DNA 2: AAATCTGACGTGAATCTGTTTG	3	3			
ZM6.22v2 recognition site (dsDNA) DNA 1: ATTGCTCTCTCACATACTTTTA DNA 2: TAAAAGTATGTGAGAGAGCAAT			2	2	2
